In patent US20220298218A1 (ANTAG THERAPEUTICS, published 2022):
*1 amine or outer side, *2 acyl side, *3 side chain or, on linkers, in order; H or OH if unused. Where no end group is shown, it is not given here. Side-chain parts run from the residue outwards. The star is where a group is joined. C18 diacid = O=C(O)CCCCCCCCCCCCCCCCC(=O)*; C16 diacid = O=C(O)CCCCCCCCCCCCCCC(=O)*; γGlu = O=C(O)[C@H](CCC(=O)[*:2])N[*:1]; AEEA = NCCOCCOCC(=O)O

T1: human GIP receptor (human, UniProt P48546 22-466)
T1 sequence (looked up): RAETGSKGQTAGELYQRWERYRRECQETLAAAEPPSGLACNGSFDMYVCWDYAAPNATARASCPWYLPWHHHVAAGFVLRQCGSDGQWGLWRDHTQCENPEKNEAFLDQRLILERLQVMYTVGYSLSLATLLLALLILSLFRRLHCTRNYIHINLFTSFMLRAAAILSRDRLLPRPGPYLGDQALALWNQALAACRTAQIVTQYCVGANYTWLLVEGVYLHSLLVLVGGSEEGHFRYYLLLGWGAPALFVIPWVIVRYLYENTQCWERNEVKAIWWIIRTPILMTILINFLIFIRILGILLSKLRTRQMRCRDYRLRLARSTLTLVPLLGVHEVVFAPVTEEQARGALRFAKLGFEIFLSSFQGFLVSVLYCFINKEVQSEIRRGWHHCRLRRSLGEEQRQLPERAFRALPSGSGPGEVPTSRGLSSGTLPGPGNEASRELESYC

B1: AT438 (peptide)
peptide: SGTFISDYSIAMDKIK([AEEA-AEEA-AEEA-γGlu-C18 diacid])QQDFVNWLLAQKGPSSGAPPPS-OH
modifications: N-terminus assumed
SMILES: CC[C@H](C)[C@H](NC(=O)[C@H](CO)NC(=O)[C@H](Cc1ccc(O)cc1)NC(=O)[C@H](CC(=O)O)NC(=O)[C@H](CO)NC(=O)[C@@H](NC(=O)[C@H](Cc1ccccc1)NC(=O)[C@@H](NC(=O)CNC(=O)[C@@H](N)CO)[C@@H](C)O)[C@@H](C)CC)C(=O)N[C@@H](C)C(=O)N[C@@H](CCSC)C(=O)N[C@@H](CC(=O)O)C(=O)N[C@@H](CCCCN)C(=O)N[C@H](C(=O)N[C@@H](CCCCNC(=O)COCCOCCNC(=O)COCCOCCNC(=O)COCCOCCNC(=O)CC[C@H](NC(=O)CCCCCCCCCCCCCCCCC(=O)O)C(=O)O)C(=O)N[C@@H](CCC(N)=O)C(=O)N[C@@H](CCC(N)=O)C(=O)N[C@@H](CC(=O)O)C(=O)N[C@@H](Cc1ccccc1)C(=O)N[C@H](C(=O)N[C@@H](CC(N)=O)C(=O)N[C@@H](Cc1c[nH]c2ccccc12)C(=O)N[C@@H](CC(C)C)C(=O)N[C@@H](CC(C)C)C(=O)N[C@@H](C)C(=O)N[C@@H](CCC(N)=O)C(=O)N[C@@H](CCCCN)C(=O)NCC(=O)N1CCC[C@H]1C(=O)N[C@@H](CO)C(=O)N[C@@H](CO)C(=O)NCC(=O)N[C@@H](C)C(=O)N1CCC[C@H]1C(=O)N1CCC[C@H]1C(=O)N1CCC[C@H]1C(=O)N[C@@H](CO)C(=O)O)C(C)C)[C@@H](C)CC
B2: AT436 (peptide)
peptide: SGTFISDYSIAMDKIK([AEEA-AEEA-AEEA-γGlu-C16 diacid])QQDFVNWLLAQKGPSSGAPPPS-OH
modifications: N-terminus assumed
SMILES: CC[C@H](C)[C@H](NC(=O)[C@H](CO)NC(=O)[C@H](Cc1ccc(O)cc1)NC(=O)[C@H](CC(=O)O)NC(=O)[C@H](CO)NC(=O)[C@@H](NC(=O)[C@H](Cc1ccccc1)NC(=O)[C@@H](NC(=O)CNC(=O)[C@@H](N)CO)[C@@H](C)O)[C@@H](C)CC)C(=O)N[C@@H](C)C(=O)N[C@@H](CCSC)C(=O)N[C@@H](CC(=O)O)C(=O)N[C@@H](CCCCN)C(=O)N[C@H](C(=O)N[C@@H](CCCCNC(=O)COCCOCCNC(=O)COCCOCCNC(=O)COCCOCCNC(=O)CC[C@H](NC(=O)CCCCCCCCCCCCCCC(=O)O)C(=O)O)C(=O)N[C@@H](CCC(N)=O)C(=O)N[C@@H](CCC(N)=O)C(=O)N[C@@H](CC(=O)O)C(=O)N[C@@H](Cc1ccccc1)C(=O)N[C@H](C(=O)N[C@@H](CC(N)=O)C(=O)N[C@@H](Cc1c[nH]c2ccccc12)C(=O)N[C@@H](CC(C)C)C(=O)N[C@@H](CC(C)C)C(=O)N[C@@H](C)C(=O)N[C@@H](CCC(N)=O)C(=O)N[C@@H](CCCCN)C(=O)NCC(=O)N1CCC[C@H]1C(=O)N[C@@H](CO)C(=O)N[C@@H](CO)C(=O)NCC(=O)N[C@@H](C)C(=O)N1CCC[C@H]1C(=O)N1CCC[C@H]1C(=O)N1CCC[C@H]1C(=O)N[C@@H](CO)C(=O)O)C(C)C)[C@@H](C)CC
B3: AT416 (peptide)
peptide: EGTFISDYSIAMDKIK([AEEA-AEEA-AEEA-γGlu-C16 diacid])QQDFVNWLLAQKGKKNDW-OH
modifications: N-terminus assumed
SMILES: CC[C@H](C)[C@H](NC(=O)[C@H](CO)NC(=O)[C@H](Cc1ccc(O)cc1)NC(=O)[C@H](CC(=O)O)NC(=O)[C@H](CO)NC(=O)[C@@H](NC(=O)[C@H](Cc1ccccc1)NC(=O)[C@@H](NC(=O)CNC(=O)[C@@H](N)CCC(=O)O)[C@@H](C)O)[C@@H](C)CC)C(=O)N[C@@H](C)C(=O)N[C@@H](CCSC)C(=O)N[C@@H](CC(=O)O)C(=O)N[C@@H](CCCCN)C(=O)N[C@H](C(=O)N[C@@H](CCCCNC(=O)COCCOCCNC(=O)COCCOCCNC(=O)COCCOCCNC(=O)CC[C@H](NC(=O)CCCCCCCCCCCCCCC(=O)O)C(=O)O)C(=O)N[C@@H](CCC(N)=O)C(=O)N[C@@H](CCC(N)=O)C(=O)N[C@@H](CC(=O)O)C(=O)N[C@@H](Cc1ccccc1)C(=O)N[C@H](C(=O)N[C@@H](CC(N)=O)C(=O)N[C@@H](Cc1c[nH]c2ccccc12)C(=O)N[C@@H](CC(C)C)C(=O)N[C@@H](CC(C)C)C(=O)N[C@@H](C)C(=O)N[C@@H](CCC(N)=O)C(=O)N[C@@H](CCCCN)C(=O)NCC(=O)N[C@@H](CCCCN)C(=O)N[C@@H](CCCCN)C(=O)N[C@@H](CC(N)=O)C(=O)N[C@@H](CC(=O)O)C(=O)N[C@@H](Cc1c[nH]c2ccccc12)C(=O)O)C(C)C)[C@@H](C)CC
B4: AT432 (peptide)
peptide: EGTFISDYSIAMDKIK([AEEA-AEEA-AEEA-γGlu-C16 diacid])QQDFVNWLLAQKGPSSGAPPPS-OH
modifications: N-terminus assumed
SMILES: CC[C@H](C)[C@H](NC(=O)[C@H](CO)NC(=O)[C@H](Cc1ccc(O)cc1)NC(=O)[C@H](CC(=O)O)NC(=O)[C@H](CO)NC(=O)[C@@H](NC(=O)[C@H](Cc1ccccc1)NC(=O)[C@@H](NC(=O)CNC(=O)[C@@H](N)CCC(=O)O)[C@@H](C)O)[C@@H](C)CC)C(=O)N[C@@H](C)C(=O)N[C@@H](CCSC)C(=O)N[C@@H](CC(=O)O)C(=O)N[C@@H](CCCCN)C(=O)N[C@H](C(=O)N[C@@H](CCCCNC(=O)COCCOCCNC(=O)COCCOCCNC(=O)COCCOCCNC(=O)CC[C@H](NC(=O)CCCCCCCCCCCCCCC(=O)O)C(=O)O)C(=O)N[C@@H](CCC(N)=O)C(=O)N[C@@H](CCC(N)=O)C(=O)N[C@@H](CC(=O)O)C(=O)N[C@@H](Cc1ccccc1)C(=O)N[C@H](C(=O)N[C@@H](CC(N)=O)C(=O)N[C@@H](Cc1c[nH]c2ccccc12)C(=O)N[C@@H](CC(C)C)C(=O)N[C@@H](CC(C)C)C(=O)N[C@@H](C)C(=O)N[C@@H](CCC(N)=O)C(=O)N[C@@H](CCCCN)C(=O)NCC(=O)N1CCC[C@H]1C(=O)N[C@@H](CO)C(=O)N[C@@H](CO)C(=O)NCC(=O)N[C@@H](C)C(=O)N1CCC[C@H]1C(=O)N1CCC[C@H]1C(=O)N1CCC[C@H]1C(=O)N[C@@H](CO)C(=O)O)C(C)C)[C@@H](C)CC
B5: AT426 (peptide)
peptide: SGTFISDYSIAMDRIK([AEEA-AEEA-AEEA-γGlu-C18 diacid])QQDFVNWLLAQRGRRNDW-OH
modifications: N-terminus assumed
SMILES: CC[C@H](C)[C@H](NC(=O)[C@H](CO)NC(=O)[C@H](Cc1ccc(O)cc1)NC(=O)[C@H](CC(=O)O)NC(=O)[C@H](CO)NC(=O)[C@@H](NC(=O)[C@H](Cc1ccccc1)NC(=O)[C@@H](NC(=O)CNC(=O)[C@@H](N)CO)[C@@H](C)O)[C@@H](C)CC)C(=O)N[C@@H](C)C(=O)N[C@@H](CCSC)C(=O)N[C@@H](CC(=O)O)C(=O)N[C@@H](CCCNC(=N)N)C(=O)N[C@H](C(=O)N[C@@H](CCCCNC(=O)COCCOCCNC(=O)COCCOCCNC(=O)COCCOCCNC(=O)CC[C@H](NC(=O)CCCCCCCCCCCCCCCCC(=O)O)C(=O)O)C(=O)N[C@@H](CCC(N)=O)C(=O)N[C@@H](CCC(N)=O)C(=O)N[C@@H](CC(=O)O)C(=O)N[C@@H](Cc1ccccc1)C(=O)N[C@H](C(=O)N[C@@H](CC(N)=O)C(=O)N[C@@H](Cc1c[nH]c2ccccc12)C(=O)N[C@@H](CC(C)C)C(=O)N[C@@H](CC(C)C)C(=O)N[C@@H](C)C(=O)N[C@@H](CCC(N)=O)C(=O)N[C@@H](CCCNC(=N)N)C(=O)NCC(=O)N[C@@H](CCCNC(=N)N)C(=O)N[C@@H](CCCNC(=N)N)C(=O)N[C@@H](CC(N)=O)C(=O)N[C@@H](CC(=O)O)C(=O)N[C@@H](Cc1c[nH]c2ccccc12)C(=O)O)C(C)C)[C@@H](C)CC
B6: AT440 (peptide)
peptide: SGTFISDYSIAMDRIK([AEEA-AEEA-AEEA-γGlu-C16 diacid])QQDFVNWLLAQRGPSSGAPPPS-OH
modifications: N-terminus assumed
SMILES: CC[C@H](C)[C@H](NC(=O)[C@H](CO)NC(=O)[C@H](Cc1ccc(O)cc1)NC(=O)[C@H](CC(=O)O)NC(=O)[C@H](CO)NC(=O)[C@@H](NC(=O)[C@H](Cc1ccccc1)NC(=O)[C@@H](NC(=O)CNC(=O)[C@@H](N)CO)[C@@H](C)O)[C@@H](C)CC)C(=O)N[C@@H](C)C(=O)N[C@@H](CCSC)C(=O)N[C@@H](CC(=O)O)C(=O)N[C@@H](CCCNC(=N)N)C(=O)N[C@H](C(=O)N[C@@H](CCCCNC(=O)COCCOCCNC(=O)COCCOCCNC(=O)COCCOCCNC(=O)CC[C@H](NC(=O)CCCCCCCCCCCCCCC(=O)O)C(=O)O)C(=O)N[C@@H](CCC(N)=O)C(=O)N[C@@H](CCC(N)=O)C(=O)N[C@@H](CC(=O)O)C(=O)N[C@@H](Cc1ccccc1)C(=O)N[C@H](C(=O)N[C@@H](CC(N)=O)C(=O)N[C@@H](Cc1c[nH]c2ccccc12)C(=O)N[C@@H](CC(C)C)C(=O)N[C@@H](CC(C)C)C(=O)N[C@@H](C)C(=O)N[C@@H](CCC(N)=O)C(=O)N[C@@H](CCCNC(=N)N)C(=O)NCC(=O)N1CCC[C@H]1C(=O)N[C@@H](CO)C(=O)N[C@@H](CO)C(=O)NCC(=O)N[C@@H](C)C(=O)N1CCC[C@H]1C(=O)N1CCC[C@H]1C(=O)N1CCC[C@H]1C(=O)N[C@@H](CO)C(=O)O)C(C)C)[C@@H](C)CC

biological target: T1, human GIP receptor; assay: cell-based or functional assay

Row | Binder | cAMP antagonism [nM] | cAMP antagonism % inhib [%] | cAMP antagonism log [log M]
1 | B1 | 54 | 100 | -7.3
2 | B2 | 18 | 100 | -7.7
3 | B3 | 52 | 90 | -7.3
4 | B4 | 19 | 92 | -7.7
5 | B5 | 28 | 80 | -7.6
6 | B6 | 103 | 100 | -7
